Measured values taken from patent publication US7657380.
Where a chain is given by its changes, count along the chain named.

T1: human CD30 (commercial, conjugated to digoxigenin) (human, UniProt P28908 19-379, limits assumed, conjugated to digoxigenin (DIG))
T1 sequence (looked up): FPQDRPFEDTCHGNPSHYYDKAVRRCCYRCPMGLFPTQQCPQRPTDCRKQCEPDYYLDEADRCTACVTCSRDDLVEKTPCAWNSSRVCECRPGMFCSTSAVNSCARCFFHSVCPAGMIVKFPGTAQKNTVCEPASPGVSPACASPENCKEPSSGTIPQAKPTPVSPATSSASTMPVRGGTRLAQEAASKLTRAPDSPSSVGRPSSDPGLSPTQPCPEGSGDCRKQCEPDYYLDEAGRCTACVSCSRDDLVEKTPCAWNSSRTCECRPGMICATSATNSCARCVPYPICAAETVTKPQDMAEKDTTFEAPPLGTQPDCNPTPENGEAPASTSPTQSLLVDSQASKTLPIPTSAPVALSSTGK

T2: CD30 fused to the Fc region of IgG1 (R&D Systems) (UniProt P28908 19-379)
T2 sequence (looked up): T1 sequence (looked up)

B1: AC10 H3/L3.63 (antibody, IgG1, name in Kabat numbering, V domains shown)
VH: QIQLVQSGPEVKKPGASVKVSCKASGYTFTDYYITWVRQAPGQGLEWMGWIYPGSGNTKYNEKFQGRFVFSVDTSASTAYLQISSLKAEDTAVYFCANYGNYWFAYWGQGTLVTVSS
VL: DIVLTQSPDSLAVSLGERATINCKASQSVDFDGDSYMNWYQQKPGQPPKVLIYAASNLESGIPARFSGSGSGTDFTLTINSLEAEDAATYYCQQSNESPWTFGGGTKVEIK
B2: AC10 H3/L3.34 (antibody, IgG1, name in Kabat numbering, V domains shown)
VH: B1 VH
VL: B1 VL with A54S, S98D
B3: AC10 H3/L3.38 (antibody, IgG1, name in Kabat numbering, V domains shown)
VH: B1 VH
VL: B1 VL with L58R, S98D
B4: AC10 H3/L3.66 (antibody, IgG1, name in Kabat numbering, V domains shown)
VH: B1 VH
VL: B1 VL with S98D, W100I
B5: AC10 H3/L3.37 (antibody, IgG1, name in Kabat numbering, V domains shown)
VH: B1 VH
VL: B1 VL with N57T, S98D
B6: AC10 H3/L3.43 (antibody, IgG1, name in Kabat numbering, V domains shown)
VH: B1 VH
VL: B1 VL with A64D, S98D
B7: AC10 H3/L3.53 (antibody, IgG1, name in Kabat numbering, V domains shown)
VH: B1 VH
VL: B1 VL with N96S, S98D
B8: AC10 H3/L3.65 (antibody, IgG1, name in Kabat numbering, V domains shown)
VH: B1 VH
VL: B1 VL with S98D, W100F
B9: AC10 H3/L3.56 (antibody, IgG1, name in Kabat numbering, V domains shown)
VH: B1 VH
VL: B1 VL with E97N, S98D
B10: AC10 H3/L3.50 (antibody, IgG1, name in Kabat numbering, V domains shown)
VH: B1 VH
VL: B1 VL with S95L, S98D
B11: AC10 H3/L3.30 (antibody, IgG1, name in Kabat numbering, V domains shown)
VH: B1 VH
VL: B1 VL with V50L, S98D
B12: AC10 H3/L3.28 (antibody, IgG1, name in Kabat numbering, V domains shown)
VH: B1 VH
VL: B1 VL with N38D, S98D
B13: AC10 H3/L3.60 (antibody, IgG1, name in Kabat numbering, V domains shown)
VH: B1 VH
VL: B1 VL with S98F
B14: AC10 H3/L3.44 (antibody, IgG1, name in Kabat numbering, V domains shown)
VH: B1 VH
VL: B1 VL with A64S, S98D
B15: AC10 H3/L3.48 (antibody, IgG1, name in Kabat numbering, V domains shown)
VH: B1 VH
VL: B1 VL with S95G, S98D
B16: AC10 H3/L3.62 (antibody, IgG1, name in Kabat numbering, V domains shown)
VH: B1 VH
VL: B1 VL with S98L
B17: AC10 H3/L3.54 (antibody, IgG1, name in Kabat numbering, V domains shown)
VH: B1 VH
VL: B1 VL with N96Y, S98D
B18: AC10 H3/L3.27 (antibody, IgG1, name in Kabat numbering, V domains shown)
VH: B1 VH
VL: B1 VL with N38A, S98D
B19: AC10 H3/L3.51 (antibody, IgG1, name in Kabat numbering, V domains shown)
VH: B1 VH
VL: B1 VL with S95Y, S98D
B20: AC10 H3/L3.40 (antibody, IgG1, name in Kabat numbering, V domains shown)
VH: B1 VH
VL: B1 VL with E59Q, S98D
B21: AC10 H3/L3.58 (antibody, IgG1, name in Kabat numbering, V domains shown)
VH: B1 VH
VL: B1 VL with E97S, S98D
B22: AC10 H3/L3.55 (antibody, IgG1, name in Kabat numbering, V domains shown)
VH: B1 VH
VL: B1 VL with E97K, S98D
B23: AC10 H3/L3.64 (antibody, IgG1, name in Kabat numbering, V domains shown)
VH: B1 VH
VL: B1 VL with S98T
B24: AC10 H3/L3.41 (antibody, IgG1, name in Kabat numbering, V domains shown)
VH: B1 VH
VL: B1 VL with S60T, S98D
B25: AC10 H3/L3.33 (antibody, IgG1, name in Kabat numbering, V domains shown)
VH: B1 VH
VL: B1 VL with A54D, S98D
B26: AC10 H3/L3.49 (antibody, IgG1, name in Kabat numbering, V domains shown)
VH: B1 VH
VL: B1 VL with S95H, S98D
B27: AC10 H3/L3.39 (antibody, IgG1, name in Kabat numbering, V domains shown)
VH: B1 VH
VL: B1 VL with E59A, S98D
B28: AC10 H3/L3.42 (antibody, IgG1, name in Kabat numbering, V domains shown)
VH: B1 VH
VL: B1 VL with I62V, S98D
B29: AC10 H3/L3.32 (antibody, IgG1, name in Kabat numbering, V domains shown)
VH: B1 VH
VL: B1 VL with V50S, S98D
B30: AC10 H1/L3 full length antibody (antibody, V domains shown)
VH: B1 VH with F68V, V69T, F70I, S71T, L81M, Q82E, I83L, K87R, A88S
VL: B1 VL with S98D
B31: AC10 H3/L3 full length antibody (antibody, V domains shown)
VH: B1 VH
VL: B1 VL with S98D
B32: AC10 H1/L2 full length antibody (antibody, V domains shown)
VH: B1 VH with F68V, V69T, F70I, S71T, L81M, Q82E, I83L, K87R, A88S
VL: DIVLTQSPSSLSASVGDRVTITCRASQSVDFDGDSYMNWYQQKPGQPPKVLIYAASNLESGIPARFSGSGSGTDFTLTISSLQPEDFATYYCQQSNEDPWTFGGGTKVEIK
B33: AC10 H2/L3 full length antibody (antibody, V domains shown)
VH: QIQLVESGGGLVKPGGSLRLSCAASGYTFTDYYITWVRQAPGQGLEWMGWIYPGSGNTKYNEKFQGRVTMTVDTSTSTAYMELSSLRSEDTAVYFCANYGNYWFAYWGQGTLVTVSS
VL: B1 VL with S98D
B34: AC10 H1/L1 full length antibody (antibody, V domains shown)
VH: B1 VH with F68V, V69T, F70I, S71T, L81M, Q82E, I83L, K87R, A88S
VL: B32 VL with S9A, S10T, A13L, V15P, D17E, V19A, I21L, T22S
B35: AC10 H3/L1 full length antibody (antibody, V domains shown)
VH: B1 VH
VL: B32 VL with S9A, S10T, A13L, V15P, D17E, V19A, I21L, T22S
B36: AC10 H3/L0 full length antibody (antibody, V domains shown)
VH: B1 VH
VL: B1 VL with D9A, E17Q, N22S, T78N, N80H, S81P, L82V, A84E, S98D, V108L
B37: AC10 H1/L0 full length antibody (antibody, V domains shown)
VH: B1 VH with F68V, V69T, F70I, S71T, L81M, Q82E, I83L, K87R, A88S
VL: B1 VL with D9A, E17Q, N22S, T78N, N80H, S81P, L82V, A84E, S98D, V108L

Target: T1, human CD30 (commercial, conjugated to …)
Experiment: AlphaScreen competition

| Binder | Fold IC50 vs H3/L3 [fold] |
| --- | --- |
| B1 | 0.57 |
| B2 | 0.47 |
| B3 | 1.46 |
| B4 | 0 |
| B5 | 1.26 |
| B6 | 1.16 |
| B7 | 0.48 |
| B8 | 0.34 |
| B9 | 0.64 |
| B10 | 0.02 |
| B11 | 0.39 |
| B12 | 0.41 |
| B13 | 0.02 |
| B14 | 1.08 |
| B15 | 0.29 |
| B16 | 0.46 |
| B17 | 0.96 |
| B18 | 0.38 |
| B19 | 0.02 |
| B20 | 0.87 |
| B21 | 0.49 |
| B22 | 0.27 |
| B23 | 0.14 |
| B24 | 1.8 |
| B25 | 0.26 |
| B26 | 0.01 |
| B27 | 0.85 |
| B28 | 1.55 |
| B29 | 0.32 |

Target: T2, CD30 fused to the Fc region of IgG1 …
Experiment: SPR, CD30-Fc on Protein A chip

| Binder | Fold KD vs WT [fold] | Kd [nM] |
| --- | --- | --- |
| B30 | 0.67 | 5.09 |
| B31 | 1.45 | 2.33 |
| B32 | 0.45 | 7.55 |
| B33 | 0.5 | 6.75 |
| B34 | 0.6 | 5.63 |
| B35 | 1.39 | 2.44 |
| B36 | 1.1 | 3.08 |
| B37 | 0.53 | 6.39 |

Target: T1, human CD30 (commercial, conjugated to …)
Experiment: AlphaScreen competition vs biotin-WT AC10

| Binder | Fold IC50 vs WT [fold] | IC50 [nM] |
| --- | --- | --- |
| B30 | 0.18 | 17.4 |
| B31 | 1.59 | 1.99 |
| B32 | 0.07 | 45.3 |
| B33 | 0.12 | 27.2 |
| B34 | 0.11 | 27.7 |
| B35 | 0.52 | 6.09 |
| B36 | 0.51 | 6.18 |
| B37 | 0.32 | 9.77 |
